According to article PMC8928829 (mAbs, 2022):

B1: NIH-CoVnb-112 (VHH)
VHH: DVQLQESGGGLVQPGGSLRLSCAASGLTLDYYAIGWFRQAPGKEREGVSCISSSDGSTYYADSVKGRFTTSRDNAKNTVYLQMNSLKPEDTAVYYCAAVPSTYYSGTYYYTCHPGGMDYWGKGTQVTVSS
B2: NIH-CoVnb-112 (VHH)
VHH: B1 VHH

What was measured:
Assay in all cases: BLI
Details in all cases: both partners purified
[1] = biological target: T1, recombinant SARS-CoV-2 RBD, Alpha (B.1.1.7), N501Y (SARS-CoV-2, Alpha (B.1.1.7) RBD N501Y, N501Y)
T1 construct: also called RBD_(N501Y); source: bought: ACRO Biosystems

[2] = biological target: T2, recombinant SARS-CoV-2 RBD, Beta (B.1.351), K417N, E484K, N501Y (SARS-CoV-2, Beta (B.1.351), K417N | E484K | N501Y)
T2 construct: source: bought: ACRO Biosystems

[3] = biological target: T3, recombinant SARS-CoV-2 RBD, Gamma (P.1), K417T, E484K, N501Y (SARS-CoV-2, Gamma (P.1), K417T | E484K | N501Y)
T3 construct: source: bought: ACRO Biosystems

[4] = biological target: T4, recombinant SARS-CoV-2 RBD, Delta (B.1.617.2), L452R, T478K (SARS-CoV-2, Delta (B.1.617.2), L452R | T478K)
T4 construct: also called Delta variant RBD; source: bought: ACRO Biosystems

[5] = biological target: T5, SARS-CoV-2 RBD Alpha (B.1.1.7) N501Y (SARS-CoV-2, Alpha (B.1.1.7) RBD N501Y, N501Y)
T5 construct: also called RBD N501Y; source: bought: ACRO Biosystems

[6] = biological target: T6, SARS-CoV-2 RBD Beta (B.1.351) (SARS-CoV-2, Beta (B.1.351), K417N | E484K | N501Y)
T6 construct: also called B.1.351/K417N, E484K, N501Y; source: bought: ACRO Biosystems

[7] = biological target: T7, SARS-CoV-2 RBD Gamma (P.1) (SARS-CoV-2, Gamma (P.1), K417T | E484K | N501Y)
T7 construct: also called P.1/K417T, E484K, N501Y; source: bought: ACRO Biosystems

[8] = biological target: T8, SARS-CoV-2 RBD Delta (B.1.617.2) (SARS-CoV-2, Delta (B.1.617.2), L452R | T478K)
T8 construct: also called B.1.617.2/L452R, T478K; source: bought: ACRO Biosystems

| Binder | Kd [1] [nM] | Kd [2] [nM] | Kd [3] [nM] | Kd [4] [nM] | kon [4] [M⁻¹ s⁻¹] | koff [5] [s⁻¹] | kon [5] [M⁻¹ s⁻¹] | koff [6] [s⁻¹] | kon [6] [M⁻¹ s⁻¹] | koff [7] [s⁻¹] | kon [7] [M⁻¹ s⁻¹] | koff [8] [s⁻¹] |
| --- | --- | --- | --- | --- | --- | --- | --- | --- | --- | --- | --- | --- |
| B1 | 3 | 4.28 | 4.16 | 1.66 | 461000 |  |  |  |  |  |  |  |
| B2 |  |  |  |  |  | 0.000428 | 153000 | 0.000705 | 201000 | 0.000822 | 214000 | 0.000609 |
